Source: US12416034B2, “Recombinant production of steviol glycosides” (EVOLVA SA, priority 2011, dated 2025)

Tests used:
EUGT11 = assay: Inhibition studies of RebD production; format: biochemical, Oryza sativa; settings: Steviva 500 μg/ml, UDP 500 μM; around 30 μM without any addition
Protocol: Experiments were conducted to determine if factors such as sucrose, fructose, UDP, product (RebD) and impurities in the less pure Stevia extracts raw materials inhibited the extent of the conversion of steviol glycoside substrates to RebD. In a standard reaction mixture, excess of the potential inhibitors (sucrose, fructose, UDP, RebD, or a commercial blend of steviol glycosides (Steviva, Steviva Brands, Inc., Portland, OR)) were added. Following incubation, RebD-production was quantified. […] The RebD that was produced was less than 7 μM. This inhibition can be alleviated in the in vivo or in vitro reactions for RebD production, by including an UDP recycling system to UDP-glucose, either by yeast or by an added SUS (sucrose synthase enzyme) in conjunction with sucrose.

[1] = In vitro transcribed and translated UGTs incubated with RebA and UDP-glucose, LC-MS; format: biochemical; settings: LC-MS chromatograms, FIG. 4
Protocol: In vitro transcription and translation of these genes was performed, and the resulting UGTs incubated with RebA and UDP-glucose. Following incubation, the reactions were analyzed by LC-MS. […] See LC-MS chromatograms in FIG. 4. As shown in the left panel of FIG. 4, UGT91D2e produced a trace amount of RebD when RebA was used as the feedstock.
(§1) EUGT11 was produced by in vitro transcription and translation, and incubated with various substrates in the RebD pathway. Similar experiments were carried out using in vitro transcribed and translated UGT91D2e. […] Compounds 1-3 were identified solely by mass and expected retention time. The numbers shown in FIG. 3 are the average peak height of the indicated steviol glycoside obtained from a LC-MS chromatogram, and, although not quantitative, can be used to compare the activity of the two enzymes. […] Both enzymes were able to convert steviol 19-O-monoglucoside (SMG) to compound 1, with EUGT11 being about ten times more efficient than UGT91D2e at converting 19-SMG to compound 1.
Both enzymes were able to convert RebA to RebD. However, EUGT11 was approximately 30 times better at converting RebA to RebD. Overall, it appears that EUGT11 produces more product than UGT91D2e in all reactions (with similar time, concentrations, temperature, and purity of enzyme) except the conversion of rubusoside to stevioside.

[2] = In vitro transcribed and translated UGTs incubated with steviol, LC-MS; format: biochemical
Protocol: as §1

[3] = In vitro transcribed and translated UGTs incubated with rubusoside, LC-MS; format: biochemical
Protocol: as §1
The left panel of FIG. 5 contains LC-MS chromatograms of the conversion of rubusoside to stevioside. The right panel of FIG. 5 contains chromatograms of the conversion of rubusoside to stevioside, to compound 2, and to compound 3 (RebE). Conversion of rubusoside to compound 3 requires two consecutive 1, 2-O-glycosylations at the 19- and 13-positions of steviol.

[4] = Screening by LC-MS of E. coli lysates, rubusoside as substrate; format: biochemical
Protocol: (§2) To analyze the approximately 1600 mutant clones of UGT91D2e, the E. coli transformants were grown overnight at 30° C. in 1 ml of NZCYM containing ampicillin (100 mg/1) and chloramphenicol (33 mg/1), in 96-well format. The next day, 150 μl of each culture was inoculated into 3 ml NZCYM containing ampicillin (100 mg/1), chloramphenicol (33 mg/1), arabinose 3 mM, IPTG 0.1 mM and ethanol 2% v/v, in 24-well format, and incubated at 20° C. and 200 rpm for ˜20 h. The following day, cells were spun down and pellets were resuspended in 100 μl of lysis buffer containing 10 mM Tris-HCl pH 8, 5 mM MgCl2, 1 mM CaCl2) and complete mini protease inhibitor EDTA-free (3 tablets/100 ml) (Hoffmann-La Roche, Basel, Switzerland) and frozen −80° C. for at least 15 minutes to promote cell lysis. […] In each case, the resulting compounds, stevioside or rebaudioside D (rebD), were measured by LC-MS. Results were analyzed in comparison with the stevioside or rebD produced by the lysates expressing the corresponding controls (91D2e, 91D2e-b, EUGT11 and the empty plasmid). […]
(§3) Half of the 1600 clones and the corresponding controls were assayed for their capacity to glycosylate rubusoside and rebaudiosideA. Stevioside and RebD were quantified by LC-MS. […]

[5] = Screening by LC-MS of E. coli lysates, rebaudioside A as substrate; format: biochemical; settings: RebA substrate
Protocol: as §2, §3

[6] = Codon optimized UGT cell lysate assay, 13-SMG as substrate; format: biochemical; settings: 0.25 mM 13-SMG, 24 hours, 30° C.
Protocol: (§4) The wild-type, DNA 2.0, and GeneArt sequences were assayed for in vitro activity to compare reactivity on substrates in the steviol glycosides pathway. UGTs were inserted in high copy (2p) vectors and expressed from a strong constitutive promoter (GPD1) (vectors P423-GPD, P424-GPD, P425-GPD, and P426-GPD). The plasmids were transformed individually into the universal Watchmaker strain, EFSC301 (described in Example 3 of WO2011/153378) and assays were carried out using cell lysates prepared from equal amount of cells (8 OD units). For the enzymatic reactions, 6 μL of each cell lysate were incubated in a 30 μL reaction with 0.25 mM steviol (final concentration) to test UGT74G1 and UGT85C2 clones, and with 0.25 mM 13-SMG (13SMG) (final concentration) to test 76G1 and 91D2e UGTs. Assays were carried out for 24 hours at 30° C. Prior to LC-MS analysis, one volume of 100% DMSO was added to each reaction, samples were centrifuged at 16000 g, and the supernatants analysed.

[7] = Denaturation temperature by differential scanning calorimetry (DSC); format: physicochemical; settings: 6HIS-purified enzymes, 91D2e-b GST-purified
Protocol: To assess the thermal stability of EUGT11 and to compare it with the other UGTs in the steviol glycosylation pathway, denaturation temperatures of the proteins were determined using differential scanning calorimetry (DSC). Use of DSC thermograms to estimate denaturation temperatures, TD, is described, for example, by E. Freire in Methods in Molecular Biology 1995, Vol. 40 191-218. DSC was performed (using 6HIS-purified EUGT11, yielding an apparent TD of 39° C.; while when GST-purified 91D2e-b was used, the measured TD was 79° C. For reference, the measured TD when using 6HIS-purified UGT74G1, UGT76G1 and UGT85C2 was 86° C. in all cases. One of skill in the art will recognize that enzyme immobilization or addition of thermal protectants can be added to the reactions to improve stability of the protein. Non-limiting examples of thermal protectants include trehalose, glycerol, ammonium sulphate, betaine, trimethylamine oxide, and proteins.

[8] = Codon optimized UGT cell lysate assay, steviol as substrate; format: biochemical; settings: 0.25 mM steviol, 24 hours, 30° C.
Protocol: as §4

[9] = test system: S. cerevisiae strain BY4741; assay: Steviol-feeding experiment of S. cerevisiae strain BY4741; format: cell-based; settings: co-expressed with wild type UGT74G1, steviol feeding
Protocol: Further experiments were conducted to determine if the codon-optimized UGT85C2 could reduce 19-SMG accumulation and increase rubusoside and higher glycosylated steviol glycosides production. The production of 19-SMG and rubusoside were analysed in a steviol-feeding experiment of S. cerevisiae strain BY4741 expressing the wild type UGT74G1 as well as the codon-optimized UGT85C2 from high copy (2p) vectors under strong constitutive promoter (GPD1) (vectors P426-GPD and P423-GPD, respectively). Whole culture samples (without cell removal) were taken and boiled in an equal volume of DMSO for total glycosides levels. Intracellular concentrations reported were obtained by pelleting cells, and resuspending in 50% DMSO to the volume of the original culture sample taken, followed by boiling. The “total” glycosides level and the normalized intracellular level then were measured using LC-MS. Using wild type UGT74G1 and wild type UGT85C2, approximately 13.5 μM rubusoside was produced in total with a maximum normalized intracellular concentration of about 7 μM. In contrast, when wild type UGT74G1 and codon-optimized UGT85C2 were used, a maximum of 26 μM rubusoside was produced, or approximately double of what was produced using the wild type UGT85C2. Additionally, the maximum normalized intracellular concentration of rubusoside was 13 μM, again an approximate doubling of what was produced using wild type UGT85C2. […] Consequently, about 10 μM less total 19-SMG was measured for the codon-optimized UGT85C2.

O=c1ccn([C@@H]2O[C@H](COP(=O)(O)OP(=O)(O)O)[C@@H](O)[C@H]2O)c(=O)[nH]1 [UDP]
RebD production in presence of potential inhibitor (EUGT11): less than 7 μM

B1: UGT91D2e: UGT91D2e polypeptide from Stevia rebaudiana, SEQ ID NO:5 (protein, listed as Stevia rebaudiana)
chain: MATSDSIVDDRKQLHVATFPWLAFGHILPYLQLSKLIAEKGHKVSFLSTTRNIQRLSSHISPLINVVQLTLPRVQELPEDAEATTDVHPEDIPYLKKASDGLQPEVTRFLEQHSPDWIIYDYTHYWLPSIAASLGISRAHFSVTTPWAIAYMGPSADAMINGSDGRTTVEDLTTPPKWFPFPTKVCWRKHDLARLVPYKAPGISDGYRMGLVLKGSDCLLSKCYHEFGTQWLPLLETLHQVPVVPVGLLPPEIPGDEKDETWVSIKKWLDGKQKGSVVYVALGSEVLVSQTEVVELALGLELSGLPFVWAYRKPKGPAKSDSVELPDGFVERTRDRGLVWTSWAPQLRILSHESVCGFLTHCGSGSIVEGLMFGHPLIMLPIFGDQPLNARLLEDKQVGIEIPRNEEDGCLTKESVARSLRSVVVEKEGEIYKANARELSKIYNDTKVEKEYVSQFVDYLEKNARAVAIDHES
amount of RebD produced when RebA was used as the feedstock [1]: trace amount | use of steviol as a substrate [2]: not able to use steviol as a substrate | amount of compound 3 (RebE) produced from rubusoside [3]: trace amount | stevioside formed by lysates [4]: approximately 0.5 μM | RebD formed by lysates [5]: ~1 µM | activity of GeneArt lysate as a percentage of the wild-type enzyme [6]: 130%

B2: UGT85C2: S. rebaudiana UGT, SEQ ID NO:3 (protein, listed as Stevia rebaudiana)
chain: MDAMATTEKKPHVIFIPFPAQSHIKAMLKLAQLLHHKGLQITFVNTDFIHNQFLESSGPHCLDGAPGFRFETIPDGVSHSPEASIPIRESLLRSIETNFLDRFIDLVTKLPDPPTCIISDGFLSVFTIDAAKKLGIPVMMYWTLAACGFMGFYHIHSLIEKGFAPLKDASYLTNGYLDTVIDWVPGMEGIRLKDFPLDWSTDLNDKVLMFTTEAPQRSHKVSHHIFHTFDELEPSIIKTLSLRYNHIYTIGPLQLLLDQIPEEKKQTGITSLHGYSLVKEEPECFQWLQSKEPNSVVYVNFGSTTVMSLEDMTEFGWGLANSNHYFLWIIRSNLVIGENAVLPPELEEHIKKRGFIASWCSQEKVLKHPSVGGFLTHCGWGSTIESLSAGVPMICWPYSWDQLTNCRYICKEWEVGLEMGTKVKRDEVKRLVQELMGEGGHKMRNKAKDWKEKARIAIAPNGSSSLNIDKMVKEITVLARN
denaturation temperature TD [7]: 86 °C | activity of GeneArt lysate as a percentage of the wild-type enzyme [8]: 340% | maximum intracellular concentration of 19-SMG [9]: 35 µM | maximum normalized intracellular concentration of rubusoside [9]: about 7 μM | rubusoside produced in total [9]: approximately 13.5 μM

B3: UGT76G1: S. rebaudiana UGT, SEQ ID NO:7 (protein, listed as Stevia rebaudiana)
chain: MENKTETTVRRRRRIILFPVPFQGHINPILQLANVLYSKGFSITIFHTNFNKPKTSNYPHFTFRFILDNDPQDERISNLPTHGPLAGMRIPIINEHGADELRRELELLMLASEEDEEVSCLITDALWYFAQSVADSLNLRRLVLMTSSLFNFHAHVSLPQFDELGYLDPDDKTRLEEQASGFPMLKVKDIKSAYSNWQILKEILGKMIKQTKASSGVIWNSFKELEESELETVIREIPAPSFLIPLPKHLTASSSSLLDHDRTVFQWLDQQPPSSVLYVSFGSTSEVDEKDFLEIARGLVDSKQSFLWVVRPGFVKGSTWVEPLPDGFLGERGRIVKWVPQQEVLAHGAIGAFWTHSGWNSTLESVCEGVPMIFSDFGLDQPLNARYMSDVLKVGVYLENGWERGEIANAIRRVMVDEEGEYIRQNARVLKQKADVSLMKGGSSYESLESLVSYISSL
denaturation temperature TD [7]: 86 °C | activity of GeneArt lysate as a percentage of the wild-type enzyme [6]: 170%
